Holding throughout (test): cell-based or functional assay
Assay [1] has as its target T1, CDH3 (Cadherin-3, P-Cadherin) on HCT116 or GSU cells (UniProt P22223 108-829, limits assumed).
Assay [2] deals with T2, MSLN (Mesothelin) on HCT116 or GSU cells (UniProt Q13421 37-598, limits assumed).
The target in assay [3] is T1, CDH3 (Cadherin-3, P-Cadherin) on HCT116 …. This is another data set of the same source.
Assay [4] addresses T2, MSLN (Mesothelin) on HCT116 or GSU cells. This is another data set of the same source.

B1: MSLN-CDH3 T-cell engager molecule 6 (example to FIG. 2L) (bispecific antibody, human IgG1, kappa, lambda, N297G)
chain 1: not shown
chain 2: EVQLVESGGGLVQPGGSLKLSCAASGFTFNKYAMNWVRQAPGKGMEWVARIRSKYNNYATYYADAVKDRFTISRDDSKNTLYLQMNNLKTEDTAVYYCVRAGNFGSSYISYFAYWGQGTLVTVSSASTKGPSVFPLAPSSKSTSGGTAALGCLVKDYFPEPVTVSWNSGALTSGVHTFPAVLQSSGLYSLESVVTVPSSSLGTQTYICNVNHKPSNTKVDKKVEPKSCDKTHTCPPCPAPELLGGPSVFLFPPKPKDTLMISRTPEVTCVVVDVSHEDPEVKFNWYVDGVEVHNAKTKPCEEQYGSTYRCVSVLTVLHQDWLNGKEYKCKVSNKALPAPIEKTISKAKGQPREPQVYTLPPSRKEMTKNQVSLTCLVKGFYPSDIAVEWESNGQPENNYKTTPPVLKSDGSFFLYSKLTVDKSRWQQGNVFSCSVMHEALHNHYTQKSLSLSPGKGGGGQVQLQESGPGLVKPSETLSLTCTVSGGSISSSSYFWGWIRQPPGKCLEWIGNIYYSGSSNYNPSLKSRVTISVDTSKNQFSLKLSSVTAADTAVYYCARLPRGDRDAFDIWGQGTMVTVSSGGGGQGGGGQGGGGQEIVMTQSPSSLSASVGDRVTITCRASQGISNYLAWYQQKPGKVPKLLIYAASTLQSGVPSRFSGSGSGTDFTLTISSLQPEDFATYYCQQSYSTPFTFGCGTKVEIKSGGGGQEVQLVESGGGLVQPGGSLKLSCAASGFTFNKYAMNWVRQAPGKGMEWVARIRSKYNNYATYYADAVKDRFTISRDDSKNTLYLQMNNLKTEDTAVYYCVRAGNFGSSYISYFAYWGQGTLVTVSSGGGGQGGGGQGGGGQQTVVTQEPSLTVSPGGTVTITCGSSTGAVTSGNYPNWIQKKPGQAPRGLIGGTKFLAPGTPARFSGSLEGGKAALTLSGVQPEDEAEYYCVLYYSNRWVFGSGTKLTVL
chain 3: EIQMTQSPSSLSASVGDRVTITCRASQDISNYLNWYQQKPGKVPKLLIYYTSRLHSGVPSRFSGSGSGTDFTLTISSLQPEDVATYYCVQYAQFPLTFGCGTKVEIKRTVAAPSVFIFPPSDEQLKSGTASVVCLLNNFYPREAKVQWKVDNALQSGNSQESVTEQDSKDSTYSLESTLTLSKADYEKHKVYACEVTHQGLSSPVTKSFNRGEC
chain 4: QTVVTQEPSLTVSPGGTVTITCGSSTGAVTSGNYPNWIQKKPGQAPRGLIGGTKFLAPGTPARFSGSLEGGKAALTLSGVQPEDEAEYYCVLYYSNRWVFGSGTKLTVLGQPKAAPSVTLFPPSSEELQANKATLVCLISDFYPGAVTVAWKADSSPVKAGVETTTPSKQSNNKYAAKSYLSLTPEQWKSHRSYSCQVTHEGSTVEKTVAPTECS
With B1, in assay [1], the “EC50 GSU KO MSLN [pM]; TDCC, MSLN knocked out, CDH3 left” value was determined as 11.6 pM; the “EC50 GSU WT [pM]; TDCC, cells double positive for CDH3 and MSLN” value (“EC50 GSU WT [pM]; TDCC” below) was found to be 0.024 pM. Moreover, in assay [2], the “EC50 GSU KO CDH3 [pM]; TDCC, CDH3 knocked out, MSLN left” value stood at 0.89 pM; the “EC50 GSU WT [pM]; TDCC” value is 0.024 pM. Moreover, in assay [3], the “EC50 HCT116 KO MSLN [pM]; TDCC, MSLN knocked out, CDH3 left” value was 0.27 pM; the “EC50 HCT116 WT [pM]; TDCC, cells double positive for CDH3 and MSLN” value (from here on “EC50 HCT116 WT [pM]; TDCC”) was determined as 0.002 pM. For the same molecule, in assay [4], the “EC50 HCT116 KO CDH3 [pM]; TDCC, CDH3 knocked out, MSLN left” value is 0.58 pM; the “EC50 HCT116 WT [pM]; TDCC” value worked out at 0.002 pM.

B2: MSLN-CDH3 T-cell engager molecule 7 (example to FIG. 2K) (bispecific antibody, human IgG1, kappa, lambda, N297G)
chain 1: not shown
chain 2: EVQLVESGGGLVQPGGSLKLSCAASGFTFNKYAMNWVRQAPGKGMEWVARIRSKYNNYATYYADAVKDRFTISRDDSKNTLYLQMNNLKTEDTAVYYCVRAGNFGSSYISYFAYWGQGTLVTVSSASTKGPSVFPLAPSSKSTSGGTAALGCLVKDYFPEPVTVSWNSGALTSGVHTFPAVLQSSGLYSLESVVTVPSSSLGTQTYICNVNHKPSNTKVDKKVEPKSCDKTHTCPPCPAPELLGGPSVFLFPPKPKDTLMISRTPEVTCVVVDVSHEDPEVKFNWYVDGVEVHNAKTKPCEEQYGSTYRCVSVLTVLHQDWLNGKEYKCKVSNKALPAPIEKTISKAKGQPREPQVYTLPPSRKEMTKNQVSLTCLVKGFYPSDIAVEWESNGQPENNYKTTPPVLKSDGSFFLYSKLTVDKSRWQQGNVFSCSVMHEALHNHYTQKSLSLSPGKGGGGQGGGGQGGGGQQVQLQESGPGLVKPSETLSLTCTVSGGSISSSSYFWGWIRQPPGKCLEWIGNIYYSGSSNYNPSLKSRVTISVDTSKNQFSLKLSSVTAADTAVYYCARLPRGDRDAFDIWGQGTMVTVSSGGGGQGGGGQGGGGQEIVMTQSPSSLSASVGDRVTITCRASQGISNYLAWYQQKPGKVPKLLIYAASTLQSGVPSRFSGSGSGTDFTLTISSLQPEDFATYYCQQSYSTPFTFGCGTKVEIK
chain 3: EIQMTQSPSSLSASVGDRVTITCRASQDISNYLNWYQQKPGKVPKLLIYYTSRLHSGVPSRFSGSGSGTDFTLTISSLQPEDVATYYCVQYAQFPLTFGCGTKVEIKRTVAAPSVFIFPPSDEQLKSGTASVVCLLNNFYPREAKVQWKVDNALQSGNSQESVTEQDSKDSTYSLESTLTLSKADYEKHKVYACEVTHQGLSSPVTKSFNRGEC
chain 4: QTVVTQEPSLTVSPGGTVTITCGSSTGAVTSGNYPNWIQKKPGQAPRGLIGGTKFLAPGTPARFSGSLEGGKAALTLSGVQPEDEAEYYCVLYYSNRWVFGSGTKLTVLGQPKAAPSVTLFPPSSEELQANKATLVCLISDFYPGAVTVAWKADSSPVKAGVETTTPSKQSNNKYAAKSYLSLTPEQWKSHRSYSCQVTHEGSTVEKTVAPTECS
Regarding B2, in assay [1], the “EC50 GSU KO MSLN [pM]; TDCC, MSLN knocked out, CDH3 left” value was found to be 95 pM; the “EC50 GSU WT [pM]; TDCC” value turned out to be 0.261 pM. Moreover, in assay [2], the “EC50 GSU KO CDH3 [pM]; TDCC, CDH3 knocked out, MSLN left” value was 54.6 pM; the “EC50 GSU WT [pM]; TDCC” value was determined as 0.261 pM. Besides, in assay [3], the “EC50 HCT116 KO MSLN [pM]; TDCC, MSLN knocked out, CDH3 left” value was 1.5 pM; the “EC50 HCT116 WT [pM]; TDCC” value is 0.04 pM. Also, in assay [4], the “EC50 HCT116 KO CDH3 [pM]; TDCC, CDH3 knocked out, MSLN left” value is 25.5 pM; the “EC50 HCT116 WT [pM]; TDCC” value amounted to 0.04 pM.

(Values after patent publication US20260167720A1 (Amgen, published 2026).)
